Assay results: patent US20080299140A1, “Immunogenic Composition and Peptide Sequences for Prevention and Treatment of an Hsv Condition” (priority 2002, published 2008)

Columns and labels:
[1] = target: HLA-DR(α1*0101,α1*0401) (human); assay: competition assay on purified HLA; tracer HA (307-319)
[2] = target: HLA-DR(α1*0101,α1*1101) (human); assay: as above
[3] = target: HLA-DR(α1*0101,α1*0101) (human); assay: as above
[4] = target: HLA-DR(α1*0101,α5*0101) (human); assay: as above
[5] = target: DR13=HLA-DR(α1*0101,α1*1301) (human); assay: HLA class II competition binding assay, biotinylated tracer peptide
[6] = target: DP402=HLA-DR(α1*0101,α1*0402) (human); assay: as above
[7] = target: DRB4=HLA-DR(α1*0101,α4*0101) (human); assay: as above
[8] = target: DR3=HLA-DR(α1*0101,α1*0301) (human); assay: as above
[9] = target: DR4=HLA-DR(α1*0101,α1*0401) (human); assay: as above
[10] = target: DRB3=HLA-DR(α1*0101,α3*0101) (human); assay: as above
[11] = target: DRB5=HLA-DR(α1*0101,α5*0101) (human); assay: as above
[12] = target: DR1=HLA-DR(α1*0101,α1*0101) (human); assay: as above
[13] = target: DR15=HLA-DR(α1*0101,α1*1501) (human); assay: as above
[14] = target: DR11=HLA-DR(α1*0101,α1*1101) (human); assay: as above
[15] = target: DP401=HLA-DP(α1*0101,α1*0401) (human); assay: as above
[16] = target: HLA-DR(α1*0101,α1*1501) (human); assay: competition assay on purified HLA; tracer A3 (152-166)
[17] = target: HLA-DR(α1*0101,α3*0101) (human); assay: competition assay on purified HLA; tracer LOL (191-210)
[18] = target: HLA-DP(α1*0101,α1*0401) (human); assay: competition assay on purified HLA; tracer bOxy 271-287
[19] = target: DP (α1*0101, α1*0402) (human); assay: as above
[20] = target: HLA-DR(α1*0101,α1*0301) (human); assay: competition assay on purified HLA; tracer MT (2-16)
[21] = target: HLA-DR(α1*0101,α1*1301) (human); assay: competition assay on purified HLA; tracer B1 (21-36)
[22] = target: HLA-DR(α1*0101,α4*0101) (human); assay: competition assay on purified HLA; tracer E2/E168
[23] = target: HLA-DR(α1*0101,α1*1101) (human); assay: reference IC50 of the tracer peptide in the HLA class II competition assay
[24] = target: DR7=HLA-DR(α1*0101,α1*0701) (human); assay: HLA class II competition binding assay, biotinylated tracer peptide
[25] = target: HLA-DR(α1*0101,α1*0701) (human); assay: competition assay on purified HLA; tracer YKL
[26] = target: HLA-DR(α1*0101,α1*1501) (human); assay: reference IC50 of the tracer peptide in the HLA class II competition assay

Substance | IC50 [1] [µM] | IC50 [2] [µM] | IC50 [3] [µM] | IC50 [4] [µM] | IC50 [5] [µM] | IC50 [6] [µM] | IC50 [7] [µM] | IC50 [8] [µM] | IC50 [9] [µM] | IC50 [10] [µM] | IC50 [11] [µM] | IC50 [13] [µM] | IC50 [14] [µM] | IC50 [16] [µM] | IC50 [17] [µM] | IC50 [19] [µM] | IC50 [20] [µM] | IC50 [22] [µM] | IC50 [24] [µM] | IC50 [25] [µM] | also measured
HSV1 35 (gD287-317) (peptide) | 0.6 | 25 | 3.16 | 4.5 | > 100 | > 100 | 3.26 | 19.5 | 0.6 | 5 | 4.5 | 6.79 | 25 | 6.79 | 5 | > 100 | 19.5 | 3.26 |  |  | IC50 [12]: 3.16 µM; IC50 [15]: > 100 µM; IC50 [18]: > 100 µM; IC50 [21]: > 100 µM
HA (307-319) (peptide) |  |  |  |  |  |  |  |  |  |  |  |  |  |  |  |  |  |  |  |  | IC50 [23]: 0.052 µM
HSV1 33 (gD121-152) (peptide) | 0.008 | 0.289 | 0.053 | 0.134 |  | 0.065 | 0.319 | 0.066 | 0.006 | 0.226 | 0.134 | 0.002 | 0.289 | 0.002 | 0.226 | 0.065 | 0.066 | 0.319 | 0.019 | 0.019 | IC50 [12]: 0.053 µM; IC50 [15]: 0.083 µM; IC50 [18]: 0.083 µM
A3 (152-166) (peptide) |  |  |  |  |  |  |  |  |  |  |  |  |  |  |  |  |  |  |  |  | IC50 [26]: 0.013 µM
HSV1 37 (gD200-234) (peptide) | 0.04 | 0.044 | 0.004 | 0.068 | 2.05 | 0.167 | 3.74 | 0.307 | 0.04 | 0.041 | 0.068 | 0.013 | 0.044 | 0.013 | 0.041 | 0.167 | 0.307 | 3.74 | 0.2 | 0.2 | IC50 [12]: 0.004 µM; IC50 [21]: 2.05 µM
HSV1 39 (gD332-358) (peptide) | 5.87 | 0.005 |  | 0.031 |  | > 100 | 0.703 |  | 5.87 | 2.31 | 0.031 | 0.95 | 0.005 | 0.95 | 2.31 | > 100 |  | 0.703 | 0.274 | 0.274 | 
HSV1 29 (gD1-23) (peptide) | 0.082 | 5.25 |  | 0.008 | > 100 | 1.63 | 52.5 | 0.12 | 0.082 | 1.4 | 0.008 | 24.5 | 5.25 | 24.5 | 1.4 | 1.63 | 0.12 | 52.5 | 0.894 | 0.894 | IC50 [15]: 17.6 µM; IC50 [18]: 17.6 µM; IC50 [21]: > 100 µM
